# Laboratory results from the RNAGym collection of RNA variant scans (doi:10.1073/pnas.2313332121).
# This sample holds only a part of the variants without activity.
# B1: TPR 5TU (parent)
# chain: GGAUCUUCUCGAUCUAACAAAAAAGACAAAUCUGCCACAAAGCUUGAGAGCAUCUUCGGAUGCAGAGGCGGCAGCCUUCGGUGGCGCGAUAGCGCCAACGUUCUCAACUAUGACACGCAAAACGCGUGCUCCGUUGAAUGGAGUUUAUCAUG
# Variants of: B1
# Assay: polymerase ribozyme fitness, log enrichment relative to wild type (log ratio); higher = more active; in vitro selection for triplet polymerase activity
# How it was run: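 To select mutant libraries of each subunit of a heterodimeric triplet polymerase ribozyme, built by PCR and transcribed, each was annealed with a biotinylated primer, partner subunit and triplets, then incubated frozen at −7 °C. Extended constructs were gel-excised, captured on streptavidin beads and amplified by RT-PCR, in one round carried out in triplicate. Illumina sequencing of input and output libraries kept genotypes with ≥10 input reads and ≥1 read per output. Fitness is the base-2 logarithm of genotype enrichment relative to wild-type enrichment, from inverse-variance-weighted replicate averages.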
row,Variant,polymerase ribozyme fitness (log ratio)
1,GGAUCUUCUAGAUCUAACAAAAAAGACAAAUCUGCCACUAAGCUUGAGAGCAUCUUCGGAUGCAGAGGCGGCAGCCUUCGGUGGCCCGAUAGCGCCAACGUUCUCAACGAUGACACGCAAAACGCGUGCCCCGUUGAAUGGAGUUUAUCAUG [C10A A39U G86C U109G U130C],≤ -4.2
2,GGAUCUUCUCGAUCUAACAAAAAAGACAAAUCUGCCACAAAGCUUGAGAGCAUCAUCGGAUGCAGAGGCGGCAGCCUUCGGUGGCGCGAUAGCGCCAACGUUCUCAACUAUGACACGCAAAACGCGUGCUCCGUUGAAUGGAGAUUAUCAUG [U55A U144A],-0.497
3,GGAUCUUCUCGAUCUAACAAAAAAGACAAAGCUGCCACAAAGCUUGAGAGCAUCUUCGGAUGCAGAGGCGGCAGCCUUCGGUGGCGCGAUAGCGCCAACGUUCUCAACUAUGACAGGCAAAACGCGUGCUCCGUUGAAUGGAGCUUAUCAUG [U31G C116G U144C],-4.03
4,GGAUCUUCUCGAUCUAACAAAAAAGACAAAUCUGCCACAAAGCUUGAGAGCAUCUUUGGAUGCAGAGGCGGCAGCCUUCGGUGGCGCUAUAGCGCCAACAUUCUCACCUAUGACACGCAAAACGCGUGCUCCGUUGAAUGGAGUUUAUCAUG [C57U G88U G100A A107C],≤ -4.2
5,GGAUCUUCUCGAUCUAACAAAAAACACAAAUCUGCCACAACGCUUGAGAGCGUCUUCGGAUGCAGAGGCGGCAGCCUUCGGUGGCACGAUAGCGCAAACGUUCUCAACUAUGACACGCAAAACGCGUGCUCCGUUGAAUGGAGUUUAUCAUG [G25C A41C A52G G86A C96A],≤ -4.2
6,GGAUCUUCUCGAUCUAACAAAAAAGACAAAUCUGCCACAAAGCUUGAGAGCAUCUUCGGAUGCAGAGGCGGCAGCCUUCGGUGGCGCGAUAGCGCCAACGUUCUCAACUAUGACACGCAAAACGCGUGCUCCGUUGAAUGGAGUUUAUCACG [U151C],-2.78
7,GGAUCUUCUCGAUCUAACAACAAAGACAAAUCUGCCACAAAGCUUGAGAGCAUCUUCGGAUGCAGAGGCGGCAGCCUUCGGUGGCGCGAUAGCGCCAACGUUCUCAACUAUGACACGCAAAACGCGUGCUCCGUUGAAUGCAGUUUAUCAUG [A21C G141C],1.03
8,GGAUCUUCUCGAUCUAACAAAAAAGACAAAUCUGCCACAAAGCUUGCGAACAUCUUCGGAUGCAGAGGCGGCAGCCUUCGGUGGCGCGAUAGCGCCAACGUCCUCAACUAUGACACGCAAAACGCGUGCUCCGUUGAAUGGAGUUAAUCAUG [A47C G50A U102C U146A],-2.55
9,GGAUCUUCUCGAUCUAACAAAAAAGACAAAUCUGCCACAAAGCUUGAGAGCAUCUUCGGAUGCAGAGGCGGCAGCCUUCGAUGGUGCGAUUGCGCCAACGUUCUCAACUAUGACACGCAAAACCCGUGCUCCGAUGAAUGGAGUUUAUCAUG [G81A C85U A91U G124C U134A],≤ -4.2
10,GGAUCGUCUCGAUCUAACAAAAAAGACAAAUCUGCCACAAAGCUUGACAGCGUCUUCGGAUGCAGAGGCGGCAGCCUUCGGUGGCGCGAUAGCGCAAACGUUCUCAACUAUGACACGCAAUACGCGUGCUCCGUUGAAUAGAGUUUAUCAUG [U6G G48C A52G C96A A121U G140A],≤ -4.2
11,GGAUCUUCUCGAUCUAACAAAAAAGACAAAUCUGCCACAAAGCUUGAGAGCAUCUUCGGAUGCAGAGGCGGCAGCUUUCGGUGACGCGAUAGCGCCAACGAUCUCAACUAUGACACGCAAAACGCGUGCUCCGUUGAAUGGAGUUUAUCAUG [C76U G84A U101A],-0.872
12,GGAUCUUCUCGAUCUAACAAAAAAGACAAAUCUGCCACAAAGCUUGAGAGCAUCUUCGGAUGCAGAGGCGGCAGCCUUCGGUGGCGCAAUAGCGCAAACGUUCUCAACUAUGACACGCAAAACGUUUGCUCCGUUGAAUGGAGUUUAUCAUG [G88A C96A C125U G126U],≤ -4.2
13,GGAUCUUCUCGAUCUAACAAAAAAGACAAAUCUGCCACAAAGCUUGAGAGCAUCUUCGGAUGCAGAGGAGGCAGCCUUCGGUGGCGCGAUAGCGCCAACGUUCUCAACUAUGACACGGAAAACGCGUGCUCCGUUGAAUGGAGUUUAUCAUG [C69A C118G],-2.21
14,GGAUCUUCUCGAUCUAACAAAAAAGACAAAUCUGCCACACAGCUUCAGAGCAUCUUAGGAUGCAGAGGCGGCACCCUUCGGUGGCGCGAUAGCGCCAACGUUAUCAUCUAUGACACGGAAAACGCGUGCUCCGGUGAAUCGAGUUUAUCAUG [A40C G46C C57A G74C C103A A107U C118G U134G G140C],≤ -4.2
15,GGAUCUUCUCGAUCUAACAAAAUAGACAAAUCUGCCACAAAGCUUGAGAGCAUCUUCGGAUGCAGAGGCGGCAGCCUUCGGUGGGGCGAUAGCGCCAACGUUCUCAACUAUGACACGCAAAACGCGUGCUCCGUUGAAUGAAGUUUAUCAUG [A23U C85G G141A],≤ -4.2
16,GGAUCUUCUCGAUCUUAGAAGUAAGACAAAUCUGCCACAAAGCUUGAGAGUAGCUUCGGAUGCAGAGACGGCAGCCUUCGCUGGCGCGAUAGCGCCAACGUUCUCAACUAUGACACGCAAAACGCGUGCUCCGUUGAAUGGAGUUUAUCAUG [A16U C18G A21G A22U C51U U53G G68A G81C],≤ -4.2
17,GGAUCUUCUCGAUCUAACAAAAAUGACAAAUCUGCCACAAAGCUUGAGAGCAUCAUCGGAUGCAGAGGCGGCAGCCUUCGGUGGCGCGAUAGCGCCAACGUUCUCAACUAUGACACGCAAAACGCGUGCUCCGUUGAAUGGAGUUUAUCAUG [A24U U55A],-0.466
18,GGAUCUUCUCGAUCUAACAAAAAAGACAAAUCUGCCACACAGCUUGAGAGCAUCUUCGGAUGCAGAGGCGGCAGCCUUCGGUGGCGCGAUAGCGCCAACGUUCUCAACUAUGACACGCAAAACGCGUGCUCCGUUGAAUGGAGAUUAUCAUG [A40C U144A],-0.312
19,GGAUCUUCUCGAUCAAACUAAAAAGACAAAUCUGCCACAAAGCUUGAGAGCAUCUUGGGAUGCAGAGGCGGCAGCCUUCGGUGGCACGAUAGCGCCAACGUUCUCAACUAUGACACGCAAAACGCGUGCUCCGUUGAAUGGAGUUUAUCAUG [U15A A19U C57G G86A],-1.7

row,Variant,polymerase ribozyme fitness (log ratio)
1,GGAUCUUCUCGAUCUAACAAAAAAGACAAAUCUGCCACAAAGCUUGAGAGCAUCUUCGGAUGCAGAGGCGGCAGCCUUCGGUGACGCGAUAGCGCCAACGUUCUCGACUAUGACACGCAAAACGCGUGCUCCGUUGAAUGGCGUUUAUCAUG [G84A A106G A142C],-0.922
2,GGAUCUUCUCGAUCUAACAAAAAAGACAAAUCUGCCACAGGGCUUGAGAGCAUCUUCGGAUGCAGACGCGGCAGCCUUCGGUGGCGCGAUAGCGCCAACGUUCUCAACUAUGACACGCACAACGCGUGCUCCGUUGAAUGGAGUUUAUCAUG [A40G A41G G67C A120C],≤ -4.2
3,GGAUCUUCUCGAUCUAACAAAAAAGACAAAUCUGCCGCAAAGCUUGAGAGCCUCUUCGGAUGCAGAGGCGGCAGCCUUCGGUGGCGCGAUAGCGUCACCGUUCUCAACUAUGACACGCAAAACGCGUGCUCCGUUGAAUGGAGUUUAUCAUG [A37G A52C C95U A98C],-3.46
4,GGAUCUUCUCGAUCUAACAAAAAAGACAAAUCUGCCACAAAGCUUGAGAGCAACUUCAGAUGCAGAGGCGGCUGACUUCGGUGGCGCGUUAUCGCCAACGUUCUCAACUUUGACACGCAAAACGCUUGCUCCGUUGAAUAGAGUUUUUCAUG [U53A G58A A73U C75A A89U G92U A110U G126U G140A A147U],≤ -4.2
5,GGGUCUUCUCGAUCUAACAAAAAAGACAAAUCUGCCACAAAGCUUGAGAGCAUCUUCGGAUGCAGAGGCGGCAGCCUUCGGGGGCGCGAUAGCGCUAACGUUCUCAACUAUGACACGCAAAACGCGUGCUCCGUUGAAUGGAGUUUAACAUG [A3G U82G C96U U148A],-4.17
6,GGAUCUUCUCGAUCUAACAAAAAAGACAAAUCUGCCACAAGGCUUGAGAGCAUCUUCGGAUGCAGAGGCGGCAGCCUUCGGUGGCGCAAUAGCGCCAACGUUCUCAACUAUGACACGCAAAACGCGUGCUCCGUUGAAUGGAAUUUAUCAUG [A41G G88A G143A],≤ -4.2
7,GGAUCUUCUCGAUCUAACAAAAAAGACAGAUCUGCCACAAAGCUUGAGAGCAUCUUCGGAUGCAGAGGCGGCAGCCUUCGGUGGCGCGAUAGCGCAAACGUUCUCAACUAUGACACGCAAAACGCGUGCUCCGUUGAAUGGAGUUUAUCAUG [A29G C96A],-3.46
8,GGAUCUUCUCGAUCUAACAAAAAAGACAAAUCUGCCACAAAGCUUGACAUCAUCUUCGGAUGCAGAGGCGGCAGCCUUCGGUGGCGCGAUACCGCCAACGUUCUCAACUAUGACACGCAAAACGCGUGCUCCGUUGAAUGGAGUGUAUCAUG [G48C G50U G92C U145G],-4.11
9,GGAUCUUCUCGAUCUAACAAAAGAGACAAAUCUGCCACAAAGCUUGAGAGCAUCUUCGGAUGCAGAGGCGGCAGCCUUCGGUGGCGCGAUAGCGCCAACGUUCUCAACUAUGAUACGCAAAACGCGUGCUCCGUUGAAUGGAGUUUAUCAUG [A23G C114U],-3.53
10,GGAUCUUCUCGAUCUAACAAAAAAGACAAAUCUGCCACAAUGCUUGAGAGCAUCUUCGGAUGCAGAGGCGGCUGCCUUCGGUGGCGCGAUAGCGCCAACGUUCUCAACUAUGACACGCAAAACGCGUGCUCCGUUGAAUGGAGUUUAUCAUG [A41U A73U],-1.65
11,GGAUCUUCUCGAUCUAACAAAAAAGACAAAUCUGCCACAAAGCUUGAGAGCAUCUUCAAAUGCAGAGGCGGCAGCCUUCGGUGGCGCGAUAGCGCCAACGUUCUCAACUAUGACACGCAAAGCGCGUGCUCCGUUGAAUGGAGUUUACCAUG [G58A G59A A122G U148C],-2.64
12,GGAUCAUCUCGGUCUAGCAAAAAAGACAAAUCUGCCACAGAGCUUGAGAGCAUCUUCGGAUGCAGAGGCGGCAGCCUUCGGUGGCGCGAUAGCGCAAACGUUCUCAACUAUGACACGCAAAACGCGUGCUCCGUUGGAUGGAGUUUAUCAUG [U6A A12G A17G A40G C96A A137G],-3.74
13,GGAUCUUCUCGAUCUAACAAAAAAGACAAAUCUGCCACAAAGCUUGAGAGCAUCUUCGGAUGCAGAGGCGGCAGCCUUCGGUGGCCCGAUAGCGCCAACGUUCUCAACUAUGACAUGCAAAACGCGUGCUCCGUUGAAUGGAGUUUAUCAUG [G86C C116U],-2.44
14,GGAUCUUCUCGAUCUAACAAAAAAGACAAAUCUGCCACAAAGCUUGAGAGCAUCUUCGGAUGCAGAGGCGGCAGCCUUCGGUGGCGCGAUAGUGCCAACGUUCUCAACUAUGACAUGCAAAUCGCGUGCUCCGUUGAAUGGAGUUUAUCAUG [C93U C116U A122U],-1.45
15,GGAUCUUCUCGAUCUAACAAAAAAGACAAAUCUGCCGCAAAGCUUGAGAGCAUCUUCGGAUGCAGAGGCGGCAGCCUUCGGUGGCGCGAUAGCGCCAACGUUCUCAACUAUGACACGCAAAACACGUGCUCCGUUGAAUGGAGUUUAUCAUG [A37G G124A],-2.19
16,GGAUCUUCUCGAUCUAACAAAAAAGACAAAUCUGCCACAAAGCUUGAGAGCAUCUUUGGAUGCAGAGGCGGCAGCCUUCGGUUGCGCGAUAGCGCCAACGUUCUCAACUAUGACACGCAAAACGCGUGCUCCGUUGGAUGGAGUUUAUCAUG [C57U G83U A137G],-1.92
17,GGAUCUUCUCGAUCUAACAUAAAAGACAAAUCUGCCACAAAGCUUGAGAGUAUCGUGGGAUGCAGAGGCGGCAGCCUUCGGUGGCGCGAUAGCGCCAACGUUCUCAACUAUGACACGCACAACGCGUGCUCCGUUGAAUGGAGUUUAUCAUG [A20U C51U U55G C57G A120C],-3.76
18,GGAUCUUUUCGAUCUAACAAAAAAGACAAAUCUGCCACAAAGCUUGAGAGCAUCUUCGGAUGCAGAGGCGGCAGCCUUCGGUGGCGCUAUAACGCCAACGUUCUCAACUAUGACACGCAAAACGCGUGCUCCGUUGAAUGGAGUUUAUCAUG [C8U G88U G92A],≤ -4.2
19,GGAUCUUCUCGAUCUAACAAAAAAGACAAAUCUGCCAUAAAGCUUGAGAGCAUCUUCGGAUGCAGAGGCGGCGGCCUUCGGUGGCGUGAUAGCGCCAACGUUCUCAACUAUGACACGCAAAACGCGUGCUCCGUUGAAUGGAGUUUAUCAUG [C38U A73G C87U],0.139
